Columns and labels:
[1] = target: T1, rat myo-inositol oxygenase (Miox) (rat, UniProt Q9QXN4 1-285); assay: Western blot of rat kidney homogenate
T1 construct: also called rat Miox; rat MIOX
T1 sequence (looked up): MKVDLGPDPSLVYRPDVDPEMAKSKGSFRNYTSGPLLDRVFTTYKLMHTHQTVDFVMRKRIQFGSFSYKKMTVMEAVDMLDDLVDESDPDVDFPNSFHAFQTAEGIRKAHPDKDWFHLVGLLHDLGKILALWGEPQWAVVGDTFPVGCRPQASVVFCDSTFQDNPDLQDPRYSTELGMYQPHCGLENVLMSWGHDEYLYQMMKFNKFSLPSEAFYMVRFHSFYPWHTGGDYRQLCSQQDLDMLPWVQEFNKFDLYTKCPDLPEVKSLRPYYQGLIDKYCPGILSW
Protocol: (§1) The cross-species immunoreactivity of the anti-MIOX monoclonal antibodies was investigated (FIG. 3D,E). Human, mouse, and rat kidney homogenates were separately probed with both monoclonal anti-MIOX antibodies.
(§2) Normal human kidney homogenate was purchased from G-Biosciences (NLH-04, G-Biosciences). Mouse and rat kidney homogenate was purchased from G-Biosciences, St. Louis, Mo. Western blotting was performed as previously described (Laterza O F, et al. Clin Chem 2006; 52:1713-1721). Blots were probed with 0.004 mg/mL of the rabbit polyclonal anti-MIOX antibody R9544 or 0.004 mg/mL of either the 01D10 or 12H06 mouse anti-MIOX monoclonal antibody. Where indicated, both monoclonal antibodies were used simultaneously, each at the above concentrations.

[2] = target: T2, peptide 1 (synthetic peptide corresponding to the epitope for mAb 01D10) (human); assay: peptide preincubation, then immunoblot
T2 peptide: PSLVYRPDVDPEV
Protocol: (§3) FIG. 4A and FIG. 4B depict images of immunoblots showing confirmation of specific antibody epitopes by blocking mAb binding to endogenous MIOX. (FIG. 4A) The peptides corresponding to the epitopes for mAb 01D10 (peptide 1) and mAb 12H06 (peptide 2) were synthesized. mAb 01D10 was pre-incubated for one hour with buffer alone, 100 μg/ml peptide 1, or 100 μg/ml peptide 2. (FIG. 4B) Western inhibition of mAb 12H06 using either peptide 1 or peptide 2.
(§4) The linear epitopes of the anti-MIOX antibodies were determined by use of spot-peptide membrane arrays containing the full length amino acid sequence of MIOX. The two mouse monoclonal antibodies mapped to opposite ends of the MIOX sequence (FIG. 3B). The antibody designated 01D10 mapped to the N-terminal sequence of MIOX (FIG. 3C). The peptide spots were decoded to reveal the sequence P9-V21. The mouse monoclonal antibody designated 12H06 mapped to the C-terminal region of MIOX (FIG. 3C). The peptide spots were decoded to reveal the epitope sequence R268-C279. […] The peptide epitope recognized by the 12H06 mouse monoclonal antibody was 100% identical to the corresponding mouse and rat Miox peptide sequence. The peptide epitope recognized by the 01D10 mouse monoclonal antibody was 92% identical to the corresponding mouse and rat Miox peptide sequence. […]

[3] = target: T3, mouse myo-inositol oxygenase (Miox) (mouse, UniProt Q9QXN5 1-285); assay: Western blot of mouse kidney homogenate
T3 construct: also called mouse Miox; mouse MIOX
T3 sequence (looked up): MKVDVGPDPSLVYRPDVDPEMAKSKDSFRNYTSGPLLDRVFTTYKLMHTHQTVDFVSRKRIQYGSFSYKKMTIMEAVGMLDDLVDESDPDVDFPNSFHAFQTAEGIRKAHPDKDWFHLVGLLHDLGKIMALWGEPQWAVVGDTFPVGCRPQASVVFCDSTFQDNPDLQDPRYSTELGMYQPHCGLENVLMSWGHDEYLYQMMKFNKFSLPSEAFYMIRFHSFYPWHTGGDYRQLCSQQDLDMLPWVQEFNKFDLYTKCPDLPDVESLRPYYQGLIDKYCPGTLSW
Protocol: as §1, §2

[4] = target: T4, peptide 2 (synthetic peptide corresponding to the epitope for mAb 12H06) (human); assay: peptide preincubation (one hour), then immunoblot
T4 peptide: RPYYQGLIDKYC
Protocol: as §3, §4

B1: mouse monoclonal anti-MIOX antibody 12H06 (antibody, IgG2b, V domains shown)
VH: QVQLQQPGAELVRPGTSVKLSCKASGYTFTSYWMHWVKQRPGQGLEWIGLIDPSDSYTNYNQKFKGKATLTVDTSSSTASMQLSSLTSEDSAVYYCVRTYYHSSYFFAYWGQGTLVTVSS
VL: DIVVTQSPASFAVSLGQRATISCRASKSVSTSGYSYINWYQQKPGQPPKLLIYLASNLESGVPARFSGSGSGTDFTLNIHPVEEEDAATYYCQHSRELPLTFGAGTRLELK
notes: the VH entry runs a few residues into CH1; also called mAb 12H06
Does B1 bind [1]?
Result: binds

Does B1 bind [2]?
Result: no binding (tested: 100 µg/ml)

Does B1 bind [3]?
Result: binds

B2: mouse monoclonal anti-MIOX antibody 01D10 (antibody, IgG2b, V domains shown)
VH: QVQLQQSGPELVKPGASVKISCKASGYSFTSYYIHWVKQRPGQGLEWIGWIYPGSGNSKYNEKFKGKATLTADTSSSTAYMQLSSLTSEDSAVYYCARDGSTYNWNFDVWGTGTTVTVSS
VL: DIQMTQSPASLSASVGETVTITCRTSGNIHNYLAWYQQKQGKSPQLLVYNAKTLADGVPSRFSGSGSGTQYSLKINSLQPEDFGSYYCQHFWSIPFTFGSGTKLEIKR
notes: they run a few residues into the constant regions; Biotinylated when used as capping antibody in the sandwich immunoassay; also called mAb 01D10
Does B2 bind [4]?
Result: no binding (tested: 100 µg/ml)

— patent US20160216264A1 (WASHINGTON UNIVERSITY, published 2016)
